Measurements: patent US20240148892A1 (DUALITY BIOLOGICS SUZHOU, published 2024)

How the values were obtained:
Experiment in all cases: ELISA, B7 family protein immobilized on plate, serially diluted antibody
Human B7-H7, His Tag = target: T1, Human B7-H7, His Tag (human, UniProt Q9UM44 23-344)
T1 construct: Bought protein; also called human B7-H7 protein; ACRO B77-H52H5; not shown: His tag
T1 sequence (looked up): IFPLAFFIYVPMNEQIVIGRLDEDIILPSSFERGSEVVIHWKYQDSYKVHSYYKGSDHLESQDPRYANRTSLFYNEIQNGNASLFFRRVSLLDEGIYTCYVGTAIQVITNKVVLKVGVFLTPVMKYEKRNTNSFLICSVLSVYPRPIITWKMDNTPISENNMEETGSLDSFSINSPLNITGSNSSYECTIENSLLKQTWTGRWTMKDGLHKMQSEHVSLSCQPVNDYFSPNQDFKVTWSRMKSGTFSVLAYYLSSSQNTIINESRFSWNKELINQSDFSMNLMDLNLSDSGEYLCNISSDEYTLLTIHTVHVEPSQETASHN
Method: (§1) Human PD-Ll protein (see the table above), human B7-H2 protein, human B7-H3 protein, human B7-H4 protein, human B7-H5 protein, human B7-H6 protein, human B7-1 protein, human B7-2 protein, human PD-L2 protein, human B7-H7 protein, and human BTNL2 protein were separately immobilized on 96-well plates by incubation at 4° C. overnight. The 96-well plates were then blocked by incubation with 1% BSA in PBS at 37° C. for 1 h. After blocking, the 96-well plates were washed 3 times with PBST (PBS containing 0.05% Tween 20). […] After incubation, the 96-well plates were washed 3 times with PBST, incubated with a secondary antibody (see the table above) in binding buffer at 37° C. for 1 h, and then washed again. TMB was added for color development, and the reaction was stopped by 1 M H₂SO₄.

Human B7-H2, His Tag = target: T2, Human B7-H2, His Tag (human, UniProt O75144 19-258)
T2 construct: Bought protein; also called human B7-H2 protein; ACRO B72-H5221; not shown: His tag
T2 sequence (looked up): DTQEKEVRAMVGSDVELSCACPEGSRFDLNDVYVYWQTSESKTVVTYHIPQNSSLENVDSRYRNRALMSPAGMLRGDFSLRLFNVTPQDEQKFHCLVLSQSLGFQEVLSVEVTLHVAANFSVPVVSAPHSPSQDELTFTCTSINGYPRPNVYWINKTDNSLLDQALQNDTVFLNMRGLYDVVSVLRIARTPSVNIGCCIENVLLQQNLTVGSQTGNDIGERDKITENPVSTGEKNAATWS
Method: as §1

[1] = target: T3, Human PD-L2, His Tag (confirmed by SPR) (human, UniProt Q9BQ51 20-219)
T3 construct: Bought protein; also called human PD-L2 protein; ACRO PD2-H5220; not shown: His tag
T3 sequence (looked up): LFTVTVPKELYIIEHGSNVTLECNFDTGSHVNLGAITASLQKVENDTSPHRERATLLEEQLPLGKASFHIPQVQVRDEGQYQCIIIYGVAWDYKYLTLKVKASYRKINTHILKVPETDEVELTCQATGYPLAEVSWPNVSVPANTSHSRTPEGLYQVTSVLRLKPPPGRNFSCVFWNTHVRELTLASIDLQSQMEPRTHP
Method: as §1

Human B7-H5, His Tag = target: T4, Human B7-H5, His Tag (human, UniProt Q9H7M9 33-194)
T4 construct: Bought protein; also called human B7-H5 protein; ACRO B75-H52H0; not shown: His tag
T4 sequence (looked up): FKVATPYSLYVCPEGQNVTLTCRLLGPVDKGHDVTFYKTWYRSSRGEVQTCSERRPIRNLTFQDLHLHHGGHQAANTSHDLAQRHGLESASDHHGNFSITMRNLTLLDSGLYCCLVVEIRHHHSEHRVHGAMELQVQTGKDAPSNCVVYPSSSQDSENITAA
Method: as §1

[2] = target: T5, Human B7-2 protein, His Tag (human, UniProt P42081 24-247)
T5 construct: Bought protein; also called ACRO CD6-H5223; not shown: His tag
T5 sequence (looked up): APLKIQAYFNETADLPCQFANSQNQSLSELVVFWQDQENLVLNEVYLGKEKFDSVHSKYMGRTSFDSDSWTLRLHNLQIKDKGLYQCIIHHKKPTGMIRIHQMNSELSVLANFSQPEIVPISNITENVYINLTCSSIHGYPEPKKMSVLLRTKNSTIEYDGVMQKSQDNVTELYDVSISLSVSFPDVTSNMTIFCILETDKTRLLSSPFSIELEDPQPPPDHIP
Method: as §1

[3] = target: T6, Human B7-H4 protein, His Tag (human, UniProt Q7Z7D3 29-258)
T6 construct: Bought protein; also called ACRO B74-H5222; not shown: His tag
T6 sequence (looked up): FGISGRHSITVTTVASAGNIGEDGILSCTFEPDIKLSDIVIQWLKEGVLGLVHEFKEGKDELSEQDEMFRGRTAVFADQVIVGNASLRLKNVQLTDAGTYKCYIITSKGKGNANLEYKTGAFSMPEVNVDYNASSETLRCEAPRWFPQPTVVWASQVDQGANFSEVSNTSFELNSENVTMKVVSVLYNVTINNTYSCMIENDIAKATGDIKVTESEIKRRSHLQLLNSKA
Method: as §1

Human PD-L1, His Tag = target: T7, Human PD-L1, His Tag (human, UniProt Q9NZQ7 19-238)
T7 construct: Bought protein; also called human PD-L1 protein; ACRO PD1-H5229; not shown: His tag
T7 sequence (Q9NZQ7 19-238 limits assumed): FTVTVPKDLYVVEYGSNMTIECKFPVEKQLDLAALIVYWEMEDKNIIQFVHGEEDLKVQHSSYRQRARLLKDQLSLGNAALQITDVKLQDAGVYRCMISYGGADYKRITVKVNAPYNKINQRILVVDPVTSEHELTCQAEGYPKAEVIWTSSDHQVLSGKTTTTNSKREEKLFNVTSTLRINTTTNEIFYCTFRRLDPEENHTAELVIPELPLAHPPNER
Method: as §1

Measured: binding result

B1: W301088-1.145.16-z3-p1-uIgG1KV320 (antibody, V domains shown)
VH: QVQLQESGPGLVKPSQTLSLTCTVTDYSITGDYAWNWIRQHPGKGLEWIGYISYSGSTSYNPSLQSRVTISRDTSKNQFSLKLSSVTAADTAVYFCARSLGRRWYFVVWGQGTTVTVSS
VL: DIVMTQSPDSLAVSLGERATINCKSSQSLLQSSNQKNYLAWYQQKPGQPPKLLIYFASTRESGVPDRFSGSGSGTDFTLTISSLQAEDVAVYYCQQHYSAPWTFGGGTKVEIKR
notes: Humanized, PTM-removed (VL N027dQ) human IgG1 LALA kappa antibody; also called WBP301088; W301088-z3-p1
no binding: Human B7-H7, His Tag | Human B7-H2, His Tag | [1] | Human B7-H5, His Tag | [2] | [3] | Human PD-L1, His Tag
